These results are taken from US20240294622A1 (SUZHOU TRANSCENTA THERAPEUTICS, published 2024).

Test [1] addresses T1, HGREM1-His (ACRO) (human, UniProt O60565 25-184).
T1 construct: Lys25-Asp184 of NP_037504 with C-terminal polyhistidine tag (ACRO GR1-H52H3); they are put here; also called hGREM1 (ACRO); human gremlin (ACRO)
T1 sequence: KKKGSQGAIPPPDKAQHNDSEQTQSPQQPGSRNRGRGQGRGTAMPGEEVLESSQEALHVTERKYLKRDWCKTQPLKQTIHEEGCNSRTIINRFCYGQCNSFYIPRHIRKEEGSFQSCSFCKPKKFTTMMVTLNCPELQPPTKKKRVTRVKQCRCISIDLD
The experiment in a line: blocking ELISA: coated BMP4, chimeric antibody pre-incubated with gremlin, lower panel; blocked ligand BMP4. As to the method:
(§1) In addition, the ability of serial dilutions of antibodies provided herein to block Gremlin binding to human BMP2/4/7 was also examined via ELISA. Plates were coated with recombinant human BMP2/4/7 (0.5 μg/ml) overnight and then serial dilutions of antibodies were incubated with 1 μg/ml of human Gremlin-his modified for 1 h at RT before this complex was added to coated plates and allowed to incubate for an additional hour at RT. The plates were then washed and added with anti-his HRP (GenScript). Plates were then developed with a TMB solution and stopped by adding stop solution. The plates were read on a plate reader at 450 nm. […] The chimeric anti-gremlin 1 antibodies (69H5-chi) and chimeric anti-gremlin 1 antibodies (22F1-chi) also can inhibit the binding of gremlin to BMP2 and BMP4 (see, FIG. 3E and FIG. 3F). The chimeric anti-gremlin 1 antibodies (56C11-chi) can inhibit the binding of gremlin to BMP2 (see, FIG. 3E).
A general note: An ELISA detects its analyte on a solid surface through an enzyme-linked reagent.

Test [2] addresses T1, HGREM1-His (ACRO). The test is described as follows: competition ELISA, Gremlin-his 0.25 ug/ml binding to coated FGFR1-Fc; partial blocking. Here is the method: (§2) Next, 0.25 μg/ml of gremlin was selected to test the blocking activity. The ability of antibodies to block Gremlin binding to human FGFR1-Fc was examined via ELISA. Plates were coated with recombinant FGFR1-Fc (2 μg/ml) overnight and then serial dilutions of antibodies were incubated with 0.25 μg/ml of human Gremlin-his modified for 1 h at RT before this complex was added to coated plates and allowed to incubate for an additional hour at RT. The plates were then washed and added with anti-his HRP (GenScript). Plates were then developed with a TMB solution and stopped by adding stop solution. The plates were read on a plate reader at 450 nm. […] Humanized anti-GREM1 antibodies provided herein (e.g., Hu14E3, Hu22F1) are expected to show the similar technical effect as their chimeric counterparts in blocking the binding of hGREM1 to FGFR1.

Test [3] concerns the target T2, Mouse Gremlin-His (R&D) (mouse, UniProt O70326 25-184).
T2 construct: Lys25-Asp184 with 10xHis, R&D 956-GR; also called mouse gremlin (R&D); mGREM1
T2 sequence: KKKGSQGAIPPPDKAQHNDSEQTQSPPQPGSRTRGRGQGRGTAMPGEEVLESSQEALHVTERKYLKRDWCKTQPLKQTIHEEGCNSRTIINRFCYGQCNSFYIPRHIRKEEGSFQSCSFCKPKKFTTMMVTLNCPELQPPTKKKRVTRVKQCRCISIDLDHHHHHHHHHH
The test is described as follows: ELISA on coated Mouse Gremlin-his, anti-mouse IgG-HRP. Here is the method:
(§3) Clear polystyrene plates (BEAVER) were coated with 100 μl/well of a […] hGREM1 (ACRO) and mouse gremlin (R&D) in high pH coating buffer overnight at 4° C. Then the plates were washed once on an automatic plate washer using PBS+0.1% Tween 20 (Sigma). 100 μl of block solution consisting of PBS+1% BSA+1% normal goat serum+0.5% Tween 20 (Sigma) was added to each well and incubated at room temperature for 2 hours. Then 100 μl of antibodies in antibody dilution buffer containing PBS+1% BSA+1% normal goat serum+0.01% Tween 20 starting from 2 μg/ml and then serial dilutions were added to each well of the plate and incubated for 1 hours at room temperature. Afterward the plates were washed three times with 200 μl of PBS+0.1% Tween20 followed by adding 100 μl/well 1:10000 Goat anti mouse IgG-HRP (abcam), and incubate for 1 hour at room temperature. They were then washed 3× with PBS+0.1% Tween20. Finally, 100 µl/well of TMB (Pierce) was added to each well and after several minutes add 50 μl of stop solution to each well. The plates were read on a Multiscan FC microplate reader (Thermo Scientific) at […].

For test [4], the target named is T1, HGREM1-His (ACRO). The experiment in a line: ELISA, coated hGREM1 (ACRO). As to the method:
as §3

Test [5] addresses T1, HGREM1-His (ACRO). The test is described as follows: blocking ELISA, Human Gremlin-1 binding to FGFR1. As to the method:
as §2

Test [6] addresses T3, XM5-Fc (human (hGREM1 with residues 123-143 …)).
T3 construct: also called gremlin 1-DAN fusion protein
T3 chain: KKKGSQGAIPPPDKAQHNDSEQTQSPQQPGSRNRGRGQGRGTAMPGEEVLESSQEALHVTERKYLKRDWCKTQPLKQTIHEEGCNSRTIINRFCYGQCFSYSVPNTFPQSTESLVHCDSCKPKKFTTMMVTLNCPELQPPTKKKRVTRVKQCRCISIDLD
The experiment in a line: ELISA on coated XM5-Fc (column XM5). As to the method:
(§4) Binding affinities to hGREM1 and XM5 were also compared. Briefly, XM5-Fc or Gremlin-his […] was coated. 100 μl of block solution consisting of PBS+1% BSA+1% normal goat serum+0.5% Tween 20 (Sigma) was added to each well and incubated at room temperature for 2 hours. 4-fold serial antibody dilution from 2 μg/ml were added. Afterward the plates were washed three times with 200 ul of PBS+0.1% Tween20 followed by adding 100 μl/well 1:10000 Goat anti mouse IgG-HRP (abeam), and incubate for 1 hour at room temperature. They were then washed 3× with PBS+0.1% Tween20. Finally, 100 μl/well of TMB (InnoReagents) was added to each well and after 2 minutes add 50 ul of stop solution to each well. The plates were read on a Multiscan FC microplate reader (Thermo Scientific) at […]. The EC50 values were show in table below.

For test [7], the target named is T1, HGREM1-His (ACRO). The experiment in a line: blocking ELISA, Human Gremlin-1 binding to BMP7; column Percentage. As to the method:
as §1

The target of test [8] is T1, HGREM1-His (ACRO). The experiment in a line: blocking ELISA, Human Gremlin-1 binding to BMP4; column OD450. As to the method:
as §1

The target of test [9] is T1, HGREM1-His (ACRO). The test is described as follows: blocking ELISA, Human Gremlin-1 binding to BMP2; column OD450. Here is the method: as §1
The target in test [10] is T1, HGREM1-His (ACRO). The experiment in a line: ELISA on coated Gremlin-his (column Gremlin). Here is the method: as §4
Test [11] concerns the target T1, HGREM1-His (ACRO). The experiment in a line: blocking ELISA, Human Gremlin-1 binding to BMP4; column Percentage. As to the method: as §1
Test [12] has as its target T1, HGREM1-His (ACRO). The experiment in a line: blocking ELISA, Human Gremlin-1 binding to BMP7; column OD450. Here is the method:
as §1

In test [13] the target is T1, HGREM1-His (ACRO). The experiment in a line: competition ELISA, Gremlin-his binding to coated BMP7.
Test [14] deals with T1, HGREM1-His (ACRO). The test is described as follows: blocking ELISA, Human Gremlin-1 binding to BMP2; column Percentage. Here is the method: as §1
Test [15] addresses T2, Mouse Gremlin-His (R&D). The test is described as follows: ELISA, coated mouse gremlin (R&D). Here is the method: as §3
Test [16] deals with T4, hGREM1 (source and construct not stated) (human, UniProt O60565 25-184).
T4 construct: also called Gremlin; gremlin
T4 sequence: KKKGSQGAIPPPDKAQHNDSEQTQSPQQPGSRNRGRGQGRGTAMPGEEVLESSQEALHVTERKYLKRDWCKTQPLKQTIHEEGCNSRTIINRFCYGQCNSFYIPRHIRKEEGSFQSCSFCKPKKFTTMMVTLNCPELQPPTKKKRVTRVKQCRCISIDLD
The test is described as follows: ELISA on hGREM1.

B1: 69H5-C (chimeric antibody 69H5) (antibody, human IgG1, V domains shown)
VH: EVQLQQSGAELVRPGASVKLSCTASGFNIKDDYMHWVKRRPEQGLEWIGWIDPENGDTEYASKFQGKATITADTSSNTAYLQLSSLTSEDTAVYYCTTWATVPDFDYWGQGTTLTVSS
VL: DIVMTQSPSSLAMSVGQKVTMSCKSSQSLLNRSNQKNYLAWYQQKPGQSPKLLVHFTSTRESGVPDRFIGSGSGTDFTLTISNLQAEDLADYFCQQHYSTPFTFGSGTKLEIK
notes: also called 69H5-chi
In the case of B1, in test [1], the “IC50 (read off the curve)” value is ~6 nM. The concentration for half-maximal inhibition (IC50) (usually the concentration at which inhibition is half-maximal) in [2] was found to be 7.14 nM.

B2: 69H5 (antibody, V domains shown)
VH: EVQLQQSGAELVRPGASVKLSCTASGFNIKDDYMHWVKRRPEQGLEWIGWIDPENGDTEYASKFQGKATITADTSSNTAYLQLSSLTSEDTAVYYCTTWATVPDFDYWGQGTTLTVSS
VL: DIVMTQSPSSLAMSVGQKVTMSCKSSQSLLNRSNQKNYLAWYQQKPGQSPKLLVHFTSTRESGVPDRFIGSGSGTDFTLTISNLQAEDLADYFCQQHYSTPFTFGSGTKLEIK
notes: mouse hybridoma antibody; also called hybridoma 69H5
As to B2, the binding result in [3] is reported as “no binding”. Also, the EC50 (usually the concentration at which the effect is half-maximal) in [4] amounted to 0.106 µg/mL.

B3: 67G11 (antibody, V domains shown)
VH: QVQLQQSGAELARPGASVKLSCKASGYTFTSYGIGWVKQRTGQGLEWIGEIYPRSGNTYNNEKFKGKATLTADKSSRTVYMELRSLISEDSAVYFCAREGYSNNYYAMDYWGQGTSVTVFS
VL: DVLMTQTPLSLPVSLGDQASISCRSSQSLVHSNGNTYLEWYLQKPGQSPKLLIYKVSNRFSGVPDRLSGSGSGTDFTLKISRVEAEDLGVYYCFQGSHVPFTFGSGTKLEIK
notes: mouse hybridoma antibody; also called hybridoma 67G11
For B3, the half-inhibitory concentration (IC50) is 2.41 µg/mL in test [5]; 0.848 µg/mL in [7]; 0.367 µg/mL in test [8]; 0.547 µg/mL in test [9]; 0.367 µg/mL in test [11]; 0.848 µg/mL in test [12]. Also, in test [14], the IC50 is 0.548 µg/mL. Also, the EC50 stood at 0.00665 µg/mL in test [6], 0.0126 µg/mL in test [10], 0.00784 µg/mL in [4] and 0.00771 µg/mL in test [15]. The maximal blocking percentage in [13] is ≥ 50%.

B4: 56C11-C (chimeric antibody of 56C11) (antibody, human IgG1, V domains shown)
VH: EVQLQQSGPELVKPGASVKISCKASGYTFTDFYMNWVKQSHGKSLEWIGDINPNNGGTSYNQKFKGKATLTVDKSSSTAYMELRSLTSEDSAVYYCARDPIYYDYDEVAYWGQGTLVTVSA
VL: DVVMTQTPLSLPVSLGDQASISCRSSQSLVHSNGNTYLHWYLQKPGQSPKLLIYKVSNRFSGVPDRFSGSGSGTDFTLKISRVEAEDLGVYFCSQSTHVPLTFGAGTKLELK
notes: also called 56C11-chi
Regarding B4, the EC50 in [16] is 0.00489 µg/mL.

B5: 42B9 (antibody, V domains shown)
VH: QVQLQQSGAELARPGASVKLSCKASGYTFTSYGIGWVKQRTGQGLEWIGEIYPRSGNTYNNEKFKGKATLTADKSSRTVYMELRSLISEDSAVYFCAREGYSNNYYAMDYWGQGTSVTVFS
VL: DVLMTQTPLSLPVSLGDQASISCISSQSLVHSNGNTYLEWYLQKPGLSPKLLIYKVSNRFSGVPDRLSGSGSGTDFTLRISRVEAEDLGVYYCFQGSHVPFTFGSGTKLEIK
notes: mouse hybridoma antibody; also called hybridoma 42B9
Consider B5, for which the IC50 stood at 2.79 µg/mL in test [5]; 0.928 µg/mL in test [7]; 0.397 µg/mL in test [8]; 0.752 µg/mL in test [9]; 0.396 µg/mL in test [11]; 0.916 µg/mL in [12]. The molecule also returned an IC50 in [14] of 0.752 µg/mL. The EC50 in test [6] turned out to be 0.00712 µg/mL; in test [10], 0.0134 µg/mL; in test [4], 0.00806 µg/mL; in test [15], 0.00851 µg/mL. For the same molecule, in test [13], the maximal blocking percentage is ≥ 50%.
